These are literature values, as cited in patent US20040047891A1, “Systems devices and methods for intrabody targeted delivery and reloading of therapeutic agents” (priority 2003, published 2004).

Where two headings read alike, the source gives them in different places. Some results are limits rather than exact numbers.

One data set deals with T1, ET-A receptor (Homo sapiens, UniProt P25101).
T1 sequence (P25101 21-427): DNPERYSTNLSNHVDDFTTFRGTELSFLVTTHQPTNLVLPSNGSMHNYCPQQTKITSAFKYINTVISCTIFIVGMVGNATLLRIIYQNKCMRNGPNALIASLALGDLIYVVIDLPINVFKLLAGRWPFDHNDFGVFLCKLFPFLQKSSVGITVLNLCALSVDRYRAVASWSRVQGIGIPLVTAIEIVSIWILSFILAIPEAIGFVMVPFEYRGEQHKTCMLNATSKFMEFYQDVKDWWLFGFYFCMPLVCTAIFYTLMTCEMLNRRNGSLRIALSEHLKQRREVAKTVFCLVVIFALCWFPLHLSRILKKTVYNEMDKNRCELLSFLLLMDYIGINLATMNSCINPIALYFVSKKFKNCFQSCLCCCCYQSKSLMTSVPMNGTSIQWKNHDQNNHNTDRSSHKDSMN

Consider `CCCCN(CCCC)C(=O)CN1C[C@H](c2ccc3c(c2)OCO3)[C@@H](C(=O)O)[C@@H]1c1ccc(OC)cc1` [ABT-627], for which the “Time to dissociate from the ET-A receptor” value on ET-A receptor is not above 2 h.
“Avidin: biotin-binding protein, source chicken egg white; member of the biotin-avidin binding pair”: the Koff (pH 2) is listed as 200 sec^−1 · 10^7, the Koff (pH 3) is given as 9 sec^−1 · 10^7, the Koff (pH 5) was 0.9 sec^−1 · 10^7 and the Koff (pH 7) is 0.4 sec^−1 · 10^7.
For the molecule “Streptavidin: avidin derivative, source fermentation, no carbohydrates”, the Koff was 35 sec^−1 · 10^7 (pH 1.7); 19 sec^−1 · 10^7 (pH 3); 8.7 sec^−1 · 10^7 (pH 5); 28 sec^−1 · 10^7 (pH 7); 64 sec^−1 · 10^7 (pH 9.2); 100 sec^−1 · 10^7 (pH 10.5).
